Laboratory results: patent publication US20180339017A1 (Merck Sharp & Dohme, published 2018)
Where two headings read alike, the source gives them in different places. Starred links: 1 amine or outer side, 2 acyl side, 3 side chain; linkers in the order of their positions; H or OH if unused. Non-standard residues stand in square brackets, D forms with d. Groups on a side chain read outwards from the residue. No end group written: not given here. *: point of attachment. γGlu = O=C(O)[C@H](CCC(=O)[*:2])N[*:1]; Palmitoyl = CCCCCCCCCCCCCCCC(=O)*

How the values were obtained:
Assay in all cases: cell-based or functional assay
human glucagon receptor [1] = biological target: T1, human glucagon receptor (human, UniProt P47871 26-477)
human GLP-1 receptor [2] = biological target: T2, human GLP-1 receptor (human, UniProt P43220 24-463)
human glucagon receptor [3] = biological target: T1, human glucagon receptor; remark: listed apart in the source
human GLP-1 receptor [4] = biological target: T2, human GLP-1 receptor; remark: listed apart in the source

T1 sequence (P47871 26-477): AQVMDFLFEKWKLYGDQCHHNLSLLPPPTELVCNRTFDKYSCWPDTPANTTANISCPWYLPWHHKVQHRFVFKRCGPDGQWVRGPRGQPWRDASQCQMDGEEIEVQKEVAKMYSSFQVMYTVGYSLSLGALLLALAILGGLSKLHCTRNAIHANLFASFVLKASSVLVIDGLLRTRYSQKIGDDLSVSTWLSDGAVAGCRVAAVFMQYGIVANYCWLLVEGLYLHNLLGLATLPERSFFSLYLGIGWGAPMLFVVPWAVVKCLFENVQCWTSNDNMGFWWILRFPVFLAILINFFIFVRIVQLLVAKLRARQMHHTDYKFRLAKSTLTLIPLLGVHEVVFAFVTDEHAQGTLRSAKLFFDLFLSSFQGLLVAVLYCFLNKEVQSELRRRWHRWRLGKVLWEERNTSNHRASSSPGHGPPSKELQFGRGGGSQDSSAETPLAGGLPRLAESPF

| Binder | EC50 hGCGR (cAMP activity assay) (human glucagon receptor [1]) | EC50 hGLP1R (cAMP activity assay) (human GLP-1 receptor [2]) | EC50 hGCGR (cAMP activity assay) (human glucagon receptor [3]) | EC50 hGLP1 (cAMP activity assay) (human GLP-1 receptor [4]) |
| --- | --- | --- | --- | --- |
| HSQGTFTSDYSKYLDSLMAQDFVQWLMST-NH2 [PD22] | 0.02 nM | 0.03 nM |  |  |
| H[dS]QGTFLSDYSKLLDSRAAQDFVQWLLQT-NH2 (N-terminus assumed; SMILES CC(C)C[C@H](NC(=O)[C@H](CC(C)C)NC(=O)[C@H](CCCCN)NC(=O)[C@H](CO)NC(=O)[C@H](Cc1ccc(O)cc1)NC(=O)[C@H](CC(=O)O)NC(=O)[C@H](CO)NC(=O)[C@H](CC(C)C)NC(=O)[C@H](Cc1ccccc1)NC(=O)[C@@H](NC(=O)CNC(=O)[C@H](CCC(N)=O)NC(=O)[C@@H](CO)NC(=O)[C@@H](N)Cc1c[nH]cn1)[C@@H](C)O)C(=O)N[C@@H](CC(=O)O)C(=O)N[C@@H](CO)C(=O)N[C@@H](CCCNC(=N)N)C(=O)N[C@@H](C)C(=O)N[C@@H](C)C(=O)N[C@@H](CCC(N)=O)C(=O)N[C@@H](CC(=O)O)C(=O)N[C@@H](Cc1ccccc1)C(=O)N[C@H](C(=O)N[C@@H](CCC(N)=O)C(=O)N[C@@H](Cc1c[nH]c2ccccc12)C(=O)N[C@@H](CC(C)C)C(=O)N[C@@H](CC(C)C)C(=O)N[C@@H](CCC(N)=O)C(=O)N[C@H](C(N)=O)[C@@H](C)O)C(C)C) [TP552] |  |  | 0.02 nM | 5 nM |
| HSQGTFFSDYSKYLDSRRAQDFVQWLLET-NH2 [PD58] | 0.03 nM | 0.02 nM |  |  |
| HSQGTFTSDYSKYLDWRRAQDFVQWLLNT-NH2 [PD23] | 0.03 nM | 0.05 nM |  |  |
| HSQGTFTSDYSKYLDSRRAQDFVDWLINS-NH2 [PD50] | 0.02 nM | 0.01 nM |  |  |
| HSQGTFTSDYSKYLDSRRAQDFVQWLLDS-NH2 [PD59] | 0.02 nM | 0.01 nM |  |  |
| HSQGTFTSDYSKYLDMQRAHDFVQWLMNT-NH2 [PD55] | 0.01 nM | 0.01 nM |  |  |
| HSQGTFTSDYSKYLDELRAYDFVQWLMNT-NH2 [PD27] | 0.05 nM | 0.03 nM |  |  |
| HSQGTFTSDYSKYLDSRMAYDFVQWLMNT-NH2 [PD56] | 0.08 nM | 0.05 nM |  |  |
| HSQGTFTSDYSKYLDWRRAQDFVQWLQNT-NH2 [PD44] | 0.02 nM | 0.01 nM |  |  |
| HSQGTFTSDYSKYLDARRAQDFVQWLIRT-NH2 [PD25] | 0.04 nM | 0.02 nM |  |  |
| HSQGTFTSDYSKYLDSIRAQDFVQWLMDT-NH2 [PD36] | 0.04 nM | 0.06 nM |  |  |
| HSQGTFTSDYSKYLDSRRAQDFVQWLLNQ-NH2 [PD57] | 0.02 nM | 0.01 nM |  |  |
| HSQGTFTSDYSKYLDNKRAQDFVQWLMQT-NH2 [PD37] |  |  | 0.16 nM | 0.05 nM |
| H[dS]QGTFLSDK([γGlu-γGlu-Palmitoyl])SKLLDSRRAQDFVQWLMQT-NH2 (N-terminus assumed; SMILES CCCCCCCCCCCCCCCC(=O)N[C@@H](CCC(=O)N[C@@H](CCC(=O)NCCCC[C@H](NC(=O)[C@H](CC(=O)O)NC(=O)[C@H](CO)NC(=O)[C@H](CC(C)C)NC(=O)[C@H](Cc1ccccc1)NC(=O)[C@@H](NC(=O)CNC(=O)[C@H](CCC(N)=O)NC(=O)[C@@H](CO)NC(=O)[C@@H](N)Cc1c[nH]cn1)[C@@H](C)O)C(=O)N[C@@H](CO)C(=O)N[C@@H](CCCCN)C(=O)N[C@@H](CC(C)C)C(=O)N[C@@H](CC(C)C)C(=O)N[C@@H](CC(=O)O)C(=O)N[C@@H](CO)C(=O)N[C@@H](CCCNC(=N)N)C(=O)N[C@@H](CCCNC(=N)N)C(=O)N[C@@H](C)C(=O)N[C@@H](CCC(N)=O)C(=O)N[C@@H](CC(=O)O)C(=O)N[C@@H](Cc1ccccc1)C(=O)N[C@H](C(=O)N[C@@H](CCC(N)=O)C(=O)N[C@@H](Cc1c[nH]c2ccccc12)C(=O)N[C@@H](CC(C)C)C(=O)N[C@@H](CCSC)C(=O)N[C@@H](CCC(N)=O)C(=O)N[C@H](C(N)=O)[C@@H](C)O)C(C)C)C(=O)O)C(=O)O) [TP536] |  |  | 0.04 nM | 5 nM |
| HSQGTFTSDYSKYLDSRRAQDFVDWLLNA-NH2 [PD48] | 0.07 nM | 0.02 nM |  |  |
| H[dS]QGTFTSDK([γGlu-γGlu-Palmitoyl])SKYLDSRRAHDFVQWLLNT-NH2 (N-terminus assumed; SMILES CCCCCCCCCCCCCCCC(=O)N[C@@H](CCC(=O)N[C@@H](CCC(=O)NCCCC[C@H](NC(=O)[C@H](CC(=O)O)NC(=O)[C@H](CO)NC(=O)[C@@H](NC(=O)[C@H](Cc1ccccc1)NC(=O)[C@@H](NC(=O)CNC(=O)[C@H](CCC(N)=O)NC(=O)[C@@H](CO)NC(=O)[C@@H](N)Cc1c[nH]cn1)[C@@H](C)O)[C@@H](C)O)C(=O)N[C@@H](CO)C(=O)N[C@@H](CCCCN)C(=O)N[C@@H](Cc1ccc(O)cc1)C(=O)N[C@@H](CC(C)C)C(=O)N[C@@H](CC(=O)O)C(=O)N[C@@H](CO)C(=O)N[C@@H](CCCNC(=N)N)C(=O)N[C@@H](CCCNC(=N)N)C(=O)N[C@@H](C)C(=O)N[C@@H](Cc1c[nH]cn1)C(=O)N[C@@H](CC(=O)O)C(=O)N[C@@H](Cc1ccccc1)C(=O)N[C@H](C(=O)N[C@@H](CCC(N)=O)C(=O)N[C@@H](Cc1c[nH]c2ccccc12)C(=O)N[C@@H](CC(C)C)C(=O)N[C@@H](CC(C)C)C(=O)N[C@@H](CC(N)=O)C(=O)N[C@H](C(N)=O)[C@@H](C)O)C(C)C)C(=O)O)C(=O)O) [TP535] |  |  | 0.02 nM | 0.05 nM |
| HSQGTFFSDYSHWLDSRRAQDFVQWLMNT-NH2 [PD43] | 0.03 nM | 0.04 nM |  |  |
| HSHGTFTSDYSKYLDSRRAQDFVQWLMTT-NH2 [PD51] | 0.03 nM | 0.02 nM |  |  |
| HSQGTFTSDYSKYLDSRRAQDFVQWLINY-NH2 [PD31] | 0.06 nM | 0.04 nM |  |  |
| H[dS]QGTFTSDK([γGlu-γGlu-Palmitoyl])SKYLDARAAHDFVQWLLNT-NH2 (N-terminus assumed; SMILES CCCCCCCCCCCCCCCC(=O)N[C@@H](CCC(=O)N[C@@H](CCC(=O)NCCCC[C@H](NC(=O)[C@H](CC(=O)O)NC(=O)[C@H](CO)NC(=O)[C@@H](NC(=O)[C@H](Cc1ccccc1)NC(=O)[C@@H](NC(=O)CNC(=O)[C@H](CCC(N)=O)NC(=O)[C@@H](CO)NC(=O)[C@@H](N)Cc1c[nH]cn1)[C@@H](C)O)[C@@H](C)O)C(=O)N[C@@H](CO)C(=O)N[C@@H](CCCCN)C(=O)N[C@@H](Cc1ccc(O)cc1)C(=O)N[C@@H](CC(C)C)C(=O)N[C@@H](CC(=O)O)C(=O)N[C@@H](C)C(=O)N[C@@H](CCCNC(=N)N)C(=O)N[C@@H](C)C(=O)N[C@@H](C)C(=O)N[C@@H](Cc1c[nH]cn1)C(=O)N[C@@H](CC(=O)O)C(=O)N[C@@H](Cc1ccccc1)C(=O)N[C@H](C(=O)N[C@@H](CCC(N)=O)C(=O)N[C@@H](Cc1c[nH]c2ccccc12)C(=O)N[C@@H](CC(C)C)C(=O)N[C@@H](CC(C)C)C(=O)N[C@@H](CC(N)=O)C(=O)N[C@H](C(N)=O)[C@@H](C)O)C(C)C)C(=O)O)C(=O)O) [TP559] |  |  | 0.02 nM | 0.05 nM |
| HSQGIFFSDYSKYLDSRRAQDFVQWLMNT-NH2 [PD52] | 0.03 nM | 0.02 nM |  |  |
| HSQGTFTSDYSKYLDSKRAHDFVQWLLNT-NH2 [PD45] | 0.03 nM | 0.02 nM |  |  |
